According to article PMC6842167 (Retrovirology, 2019):

Molecular target: T1, Recombinant human two-domain CD4 (Homo sapiens)
T1 construct: also called 2dCD4; N-terminal two domain fragment of human CD4
Assay: ELISA; decreasing concentrations of 2dCD4 immobilised directly on a 96 well plate; antibodies at 1 µg/ml; anti-human HRP secondary, absorbance at 450 nm
Conditions: both partners purified

B1: ibalizumab (antibody, V domains shown)
VH: QVQLQQSGPEVVKPGASVKMSCKASGYTFTSYVIHWVRQKPGQGLDWIGYINPYNDGTDYDEKFKGKATLTSDTSTSTAYMELSSLRSEDTAVYYCAREKDNYATGAWFAYWGQGTLVTVSS
VL: DIVMTQSPDSLAVSLGERVTMNCKSSQSLLYSTNQKNYLAWYQQKPGQSPKLLIYWASTRESGVPDRFSGSGSGTDFTLTISSVQAEDVAVYYCQQYYSYRTFGGGTKLEIK
notes: also called iMab; parental iMab antibody; source: HEK293T, transiently transfected, purified (Protein-A, SEC); copies: + +
B1: binds.
